Data on 3 molecules can be found in publication PMC2877795, “Laminin chain assembly is regulated by specific coiled-coil interactions” (Journal of Structural Biology, 2010).

What all share (conditions): both partners purified
Experiment [1] concerns the target T1, β1γ1 complex of the recombinant mouse laminin coiled-coil fragments (mouse, UniProt P02469 1561-1786; P02468 1362-1607).
T1 construct: two residues (GlySer) left from the protease recognition site after thrombin cleavage; laminin β1 chain, mouse, residues 1561-1786 of the native chain; as m6; laminin γ1 chain, mouse, residues 1362-1607 of the native chain; as m9; heterodimer by AUC; in the αβγ tests all three chains were mixed, the βγ complex was not isolated beforehand; source: mixture of the purified E. coli fragments; not …
T1 sequence 1: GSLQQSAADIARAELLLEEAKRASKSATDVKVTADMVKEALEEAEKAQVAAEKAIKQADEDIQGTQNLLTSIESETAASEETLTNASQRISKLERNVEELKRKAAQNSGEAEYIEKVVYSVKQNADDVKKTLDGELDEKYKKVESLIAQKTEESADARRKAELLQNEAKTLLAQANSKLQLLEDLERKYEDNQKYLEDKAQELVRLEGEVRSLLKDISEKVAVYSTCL
T1 sequence 2: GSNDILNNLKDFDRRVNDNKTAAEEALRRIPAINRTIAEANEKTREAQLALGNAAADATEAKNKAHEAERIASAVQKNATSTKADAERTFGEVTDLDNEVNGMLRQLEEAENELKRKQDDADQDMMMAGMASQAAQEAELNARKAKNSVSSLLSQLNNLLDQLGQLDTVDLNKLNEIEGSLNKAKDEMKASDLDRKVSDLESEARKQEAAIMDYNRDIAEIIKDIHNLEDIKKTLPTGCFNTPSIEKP
Description: AUC; sedimentation equilibrium and velocity; 5 mM sodium phosphate, 150 mM NaCl, pH 7.0 (methods) or 7.4 (Table 3); 0.1-0.5 mg/ml.

For experiment [2], the target named is T2, β1γ2 complex of the recombinant mouse laminin coiled-coil fragments (mouse, UniProt P02469 1561-1786; Q61092 949-1191).
T2 construct: two residues (GlySer) left from the protease recognition site after thrombin cleavage; laminin β1 chain, mouse, residues 1561-1786 of the native chain; as m6; laminin γ2 chain, mouse, residues 949-1191 of the native chain; as m10; alone a heterotetramer by AUC (most likely two β1 and two γ2 chains); one chain of each in the trimer with α3; in the αβγ tests all three chains were mixed; also called …
T2 sequence 1: T1 sequence 1
T2 sequence 2: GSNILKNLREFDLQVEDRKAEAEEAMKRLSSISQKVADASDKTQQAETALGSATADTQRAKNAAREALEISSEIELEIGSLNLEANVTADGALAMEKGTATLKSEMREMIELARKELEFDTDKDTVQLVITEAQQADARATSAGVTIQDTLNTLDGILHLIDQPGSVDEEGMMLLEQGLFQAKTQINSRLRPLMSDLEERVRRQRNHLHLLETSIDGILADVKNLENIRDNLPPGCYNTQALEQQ
The experiment is described as above.

For experiment [3], the target named is T3, β2γ1 complex of the recombinant mouse laminin coiled-coil fragments (mouse, UniProt Q61292 1575-1799; P02468 1362-1607).
T3 construct: two residues (GlySer) left from the protease recognition site after thrombin cleavage; laminin β2 chain, mouse, residues 1575-1799 of the native chain; as m7; laminin γ1 chain, mouse, residues 1362-1607 of the native chain; as m9; in the αβγ tests all three chains were mixed, the βγ complex was not isolated beforehand; source: mixture of the purified E. coli fragments; not shown: 6xHis, …
T3 sequence 1: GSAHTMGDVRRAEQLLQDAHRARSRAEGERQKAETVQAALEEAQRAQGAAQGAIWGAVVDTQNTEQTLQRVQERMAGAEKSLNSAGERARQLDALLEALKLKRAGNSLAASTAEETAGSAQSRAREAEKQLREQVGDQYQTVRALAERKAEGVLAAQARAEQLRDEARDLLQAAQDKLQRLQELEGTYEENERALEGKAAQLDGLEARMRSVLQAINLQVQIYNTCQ
T3 sequence 2: T1 sequence 2
Description: native gel or EMSA; mixtures of one α, one β and one γ chain fragment; 10% non-denaturing PAGE (acid gels for basic complexes); mixtures reduced, heated to 70 °C for 5 min and cooled; run overnight at 50 V, room temperature, no cooling; Coomassie; bands confirmed by in-gel trypsin digestion and mass spectrometry.

The target of experiment [4] is T4, β3γ2 complex of the recombinant mouse laminin coiled-coil fragments (mouse, UniProt Q61087 945-1168; Q61092 949-1191).
T4 construct: two residues (GlySer) left from the protease recognition site after thrombin cleavage; laminin β3 chain, mouse, residues 945-1168 of the native chain; as m8; laminin γ2 chain, mouse, residues 949-1191 of the native chain; as m10; in the αβγ tests all three chains were mixed, the βγ complex was not isolated beforehand; source: mixture of the purified E. coli fragments; not shown: 6xHis, …
T4 sequence 1: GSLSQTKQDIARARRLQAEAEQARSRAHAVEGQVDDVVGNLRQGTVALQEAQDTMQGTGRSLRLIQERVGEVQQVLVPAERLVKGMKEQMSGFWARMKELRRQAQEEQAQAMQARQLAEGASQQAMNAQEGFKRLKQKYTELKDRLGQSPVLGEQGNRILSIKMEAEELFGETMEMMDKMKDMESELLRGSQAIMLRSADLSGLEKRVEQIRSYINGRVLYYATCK
T4 sequence 2: T2 sequence 2
Described as above.

Experiment [5] has as its target T5, recombinant mouse laminin β1 chain C-terminal coiled-coil fragment (1561–1786) (mouse, UniProt P02469 1561-1786).
T5 construct: two residues (GlySer) left from the protease recognition site after thrombin cleavage; laminin β1 chain, mouse, C-terminal coiled-coil fragment, residues 1561-1786 of the native chain (226 residues); source: E. coli JM109(DE3), purified (Ni2+-Sepharose, denaturing, 8 M urea), 6xHis tag removed by thrombin; not shown: 6xHis, N-terminal, cleaved
T5 sequence: T1 sequence 1
In words: AUC; sedimentation equilibrium and velocity; 5 mM sodium phosphate, 150 mM NaCl, pH 7.0 (methods) or 7.4 (Table 3); 0.1-0.5 mg/ml.

In experiment [6] the target is T5, recombinant mouse laminin β1 chain …. Described as above. This is another data set of the same source.

B1: recombinant mouse laminin α3 chain C-terminal coiled-coil fragment (2176–2397) (domain or fragment)
chain: GSYENILNAIRAAEDAASKATSASKSAFQTVIKEDLPKRAKTLSSDSEELLNEAKMTQKRLQQVSPALNSLQQTLKTVSVQKDLLDANLTVARDDLHGIQRGDIDSVVIGAKSMVREANGITSEVLDGLNPIQTDLGRIKDSYESARREDFSKALVDANNSVKKLTRKLPDLFIKIESINQQLLPLGNISDNVDRIRELIQQARDAANKVAIPMRFNGKSGVEV
notes: two residues (GlySer) left from the protease recognition site after thrombin cleavage; laminin α3 chain, mouse, C-terminal coiled-coil fragment, residues 2176-2397 of the native chain (222 residues); the printed numbers fit the long (α3B) form; source: E. coli JM109(DE3), purified (Ni2+-Sepharose, denaturing, 8 M urea), 6xHis tag removed by thrombin; not shown: 6xHis, N-terminal, cleaved; pPEP-T …
In the case of B1, the “stoichiometry N” value in experiment [1] and in experiment [2] was 1 in each case. Further, the binding result in experiment [3] and in experiment [4] was “binds” throughout.

B2: recombinant mouse laminin γ2 chain C-terminal coiled-coil fragment (949–1191) (domain or fragment)
chain: T2 sequence 2
notes: two residues (GlySer) left from the protease recognition site after thrombin cleavage; laminin γ2 chain, mouse, C-terminal coiled-coil fragment, residues 949-1191 of the native chain (243 residues); source: E. coli JM109(DE3), purified (Ni2+-Sepharose, denaturing, 8 M urea), 6xHis tag removed by thrombin; not shown: 6xHis, N-terminal, cleaved; pPEP-T leader (short C-terminal fragment of the …)
Consider B2, for which, in experiment [5], the “stoichiometry N” value is 1 γ2 per β1 (2:2).

B3: recombinant mouse laminin γ1 chain C-terminal coiled-coil fragment (1362–1607) (domain or fragment)
chain: T1 sequence 2
notes: two residues (GlySer) left from the protease recognition site after thrombin cleavage; laminin γ1 chain, mouse, C-terminal coiled-coil fragment, residues 1362-1607 of the native chain (246 residues); source: E. coli JM109(DE3), purified (Ni2+-Sepharose, denaturing, 8 M urea), 6xHis tag removed by thrombin; not shown: 6xHis, N-terminal, cleaved; pPEP-T leader (short C-terminal fragment of the …)
For B3, in experiment [6], the “stoichiometry N” value was found to be 1.
